In doi:10.1101/2020.01.02.892901:
“And” between values parts separate entries of the source, which are not always exact repeats. Equal values may be shown once.

Biological target: MET pY1313 phosphopeptide (human)
Test: fluorescence polarisation

FGR SH2 domain (from UniProt P09769 144-241) (domain or fragment)
Kd: 3 µM and 12 µM
